From patent US20220341931A1

Assays:
[1] = target: SARS-CoV-2 (2019-nCoV) Spike S1-His Recombinant Protein (Sino Biological Cat: 40591-VO8H), as barcode-linked antigen (SARS-CoV-2 (2019-nCoV)) (UniProt P0DTC2)
[2] = target: SARS-CoV-2 (2019-nCoV) Spike S1-His Recombinant Protein (Sino Biological Cat: 40591-VO8H), as barcode-linked antigen (SARS-CoV-2 (2019-nCoV)) (UniProt P0DTC2); remark: listed apart in the source
[3] = target: Influenza B [B/Washington/02/2019 (B/Victoria lineage)-like virus] Hemagglutinin (HA), His-Tag (Nati (Influenza B [B/Washington/02/2019 (B/Victoria lineage)-like virus]))
[4] = target: Human Metapneumovirus (hMPV) B Glycoprotein G, His-Tag (HEK293) (Native Antigen Company #REC31948-10 (Human Metapneumovirus (hMPV) B))
[5] = target: Epstein-Barr virus (Herpesvirus 4) EBV Glycoprotein gp350/EBV GP350 Protein (His Tag) (Sino Biologic (Epstein-Barr virus (Herpesvirus 4)) (UniProt P03200))
Sequence of UniProt P03200 (P03200 1-470): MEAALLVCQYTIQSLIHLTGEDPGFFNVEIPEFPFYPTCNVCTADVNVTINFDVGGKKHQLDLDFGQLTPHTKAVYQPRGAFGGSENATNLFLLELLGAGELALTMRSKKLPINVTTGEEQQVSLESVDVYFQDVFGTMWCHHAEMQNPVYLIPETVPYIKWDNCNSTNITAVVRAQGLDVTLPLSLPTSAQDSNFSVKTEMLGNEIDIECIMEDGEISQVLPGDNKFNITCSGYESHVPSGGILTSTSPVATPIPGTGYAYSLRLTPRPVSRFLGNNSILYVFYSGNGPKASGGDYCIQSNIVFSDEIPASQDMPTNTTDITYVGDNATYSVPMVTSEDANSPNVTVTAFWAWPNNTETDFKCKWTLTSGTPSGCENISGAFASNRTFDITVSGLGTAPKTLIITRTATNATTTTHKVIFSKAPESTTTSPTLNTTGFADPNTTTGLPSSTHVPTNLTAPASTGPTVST

[6] = target: Human cytomegalovirus (HCMV) Glycoprotein B/gB Protein (His Tag) (Sino Biological 10202-V08H1), as b (Human cytomegalovirus (HCMV))
[7] = target: Varicella-Zoster Virus Heterodimer gE/gI (HEK293), His-tag (Native Antigen Company #REC31907-100), a (Varicella-Zoster Virus) (UniProt P09259)
Sequence of UniProt P09259 (P09259 31-538 limits assumed, chain 1 of 2): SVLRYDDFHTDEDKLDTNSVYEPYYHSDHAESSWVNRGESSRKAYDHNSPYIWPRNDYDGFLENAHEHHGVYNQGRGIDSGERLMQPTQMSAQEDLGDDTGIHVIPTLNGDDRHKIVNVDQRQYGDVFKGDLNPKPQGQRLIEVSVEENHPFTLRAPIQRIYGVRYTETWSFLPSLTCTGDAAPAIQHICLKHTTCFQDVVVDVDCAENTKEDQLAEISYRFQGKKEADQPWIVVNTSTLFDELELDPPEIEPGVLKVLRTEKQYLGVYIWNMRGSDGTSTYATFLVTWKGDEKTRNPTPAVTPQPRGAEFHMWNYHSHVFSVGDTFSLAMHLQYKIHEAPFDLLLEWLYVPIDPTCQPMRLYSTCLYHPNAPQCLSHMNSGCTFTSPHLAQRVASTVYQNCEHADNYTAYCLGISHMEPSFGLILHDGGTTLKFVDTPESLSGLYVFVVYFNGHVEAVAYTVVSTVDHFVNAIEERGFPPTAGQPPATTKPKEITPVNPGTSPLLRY
Sequence of UniProt P09259 (P09258 18-295 limits assumed, chain 2 of 2, further chain): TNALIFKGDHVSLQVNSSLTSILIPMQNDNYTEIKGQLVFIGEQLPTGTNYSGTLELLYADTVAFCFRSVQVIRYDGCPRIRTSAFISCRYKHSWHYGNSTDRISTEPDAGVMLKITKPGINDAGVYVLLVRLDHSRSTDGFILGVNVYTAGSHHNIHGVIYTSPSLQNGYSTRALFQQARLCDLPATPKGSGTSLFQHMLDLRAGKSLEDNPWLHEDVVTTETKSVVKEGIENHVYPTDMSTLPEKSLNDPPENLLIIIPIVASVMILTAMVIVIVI

Substance: SARS-CoV-2 (2019-nCoV) Nucleocapsid Antibody, Rabbit MAb (Sino Biological Cat: 40143-R019)
- Spike #/Nuc # [1]: 0.291
- barcode sequence counts (COVID Spike) [2]: 900 counts
- barcode sequence counts (FLU B) [3]: 185 counts
- barcode sequence counts (hMPV) [4]: 201 counts
- barcode sequence counts (EBV) [5]: 1080 counts
- barcode sequence counts (HCMV) [6]: 836 counts
- barcode sequence counts (VZV) [7]: 200 counts
